According to patent US20070243194A1:

Experiments:
[1] = target: human IGF-1R on cells (human) (UniProt P08069); assay: flow cytometry on MCF-7 cells, FITC anti-mouse IgG; x axis is log Ab conc. (nM)
[2] = target: human IGF-1R(1-902)-His10 (human) (UniProt P08069); assay: ELISA on plates coated with rh-IGF-1R, HRPO anti-mouse IgG Fc [a]
human IGF-1R(1-902)-His10 (human), sequence (P08069 other isoform, or with tags, fused parts or gaps): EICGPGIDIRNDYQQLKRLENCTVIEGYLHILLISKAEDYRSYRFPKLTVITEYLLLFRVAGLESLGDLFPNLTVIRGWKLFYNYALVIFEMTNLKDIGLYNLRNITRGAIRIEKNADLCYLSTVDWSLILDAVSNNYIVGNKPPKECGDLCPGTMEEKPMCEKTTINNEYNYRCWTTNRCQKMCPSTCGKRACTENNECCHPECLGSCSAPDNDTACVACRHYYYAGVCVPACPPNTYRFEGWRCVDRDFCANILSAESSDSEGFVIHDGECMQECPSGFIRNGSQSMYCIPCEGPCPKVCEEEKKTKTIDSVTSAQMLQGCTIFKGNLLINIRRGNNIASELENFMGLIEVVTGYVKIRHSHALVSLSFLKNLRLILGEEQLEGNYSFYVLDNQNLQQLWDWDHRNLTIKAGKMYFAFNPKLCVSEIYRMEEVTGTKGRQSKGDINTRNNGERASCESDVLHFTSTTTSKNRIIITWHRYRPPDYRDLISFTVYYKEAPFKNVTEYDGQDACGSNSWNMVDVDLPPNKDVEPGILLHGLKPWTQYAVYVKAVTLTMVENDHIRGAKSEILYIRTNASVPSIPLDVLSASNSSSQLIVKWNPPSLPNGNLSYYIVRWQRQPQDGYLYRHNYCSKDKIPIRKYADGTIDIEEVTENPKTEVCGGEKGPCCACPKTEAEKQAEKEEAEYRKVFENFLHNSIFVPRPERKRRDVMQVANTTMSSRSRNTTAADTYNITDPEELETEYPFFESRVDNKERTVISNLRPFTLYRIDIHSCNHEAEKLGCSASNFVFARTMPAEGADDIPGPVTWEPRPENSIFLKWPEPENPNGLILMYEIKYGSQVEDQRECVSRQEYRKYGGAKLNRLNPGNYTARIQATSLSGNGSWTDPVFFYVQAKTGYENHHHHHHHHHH

human IGF-1R on cells (human), sequence (P08069 31-740, chain 1 of 2): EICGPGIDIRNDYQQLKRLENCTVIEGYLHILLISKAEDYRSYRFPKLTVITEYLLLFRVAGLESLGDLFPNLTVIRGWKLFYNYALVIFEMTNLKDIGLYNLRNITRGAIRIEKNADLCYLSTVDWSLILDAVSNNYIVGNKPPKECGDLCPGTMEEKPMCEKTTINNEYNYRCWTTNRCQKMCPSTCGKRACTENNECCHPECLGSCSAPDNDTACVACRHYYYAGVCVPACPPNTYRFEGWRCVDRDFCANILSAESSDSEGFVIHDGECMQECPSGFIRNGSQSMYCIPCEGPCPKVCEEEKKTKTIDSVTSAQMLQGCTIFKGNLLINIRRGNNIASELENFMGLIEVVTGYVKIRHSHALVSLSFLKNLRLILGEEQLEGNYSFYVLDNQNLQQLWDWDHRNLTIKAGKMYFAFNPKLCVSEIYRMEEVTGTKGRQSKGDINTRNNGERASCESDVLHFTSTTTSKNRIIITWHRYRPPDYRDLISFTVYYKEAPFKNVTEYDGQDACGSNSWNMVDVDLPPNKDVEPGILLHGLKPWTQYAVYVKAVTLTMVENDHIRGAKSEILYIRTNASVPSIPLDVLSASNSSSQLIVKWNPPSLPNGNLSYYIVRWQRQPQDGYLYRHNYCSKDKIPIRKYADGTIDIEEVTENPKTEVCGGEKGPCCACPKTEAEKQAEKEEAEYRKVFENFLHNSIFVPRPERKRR
human IGF-1R on cells (human), sequence (P08069 741-1367, chain 2 of 2): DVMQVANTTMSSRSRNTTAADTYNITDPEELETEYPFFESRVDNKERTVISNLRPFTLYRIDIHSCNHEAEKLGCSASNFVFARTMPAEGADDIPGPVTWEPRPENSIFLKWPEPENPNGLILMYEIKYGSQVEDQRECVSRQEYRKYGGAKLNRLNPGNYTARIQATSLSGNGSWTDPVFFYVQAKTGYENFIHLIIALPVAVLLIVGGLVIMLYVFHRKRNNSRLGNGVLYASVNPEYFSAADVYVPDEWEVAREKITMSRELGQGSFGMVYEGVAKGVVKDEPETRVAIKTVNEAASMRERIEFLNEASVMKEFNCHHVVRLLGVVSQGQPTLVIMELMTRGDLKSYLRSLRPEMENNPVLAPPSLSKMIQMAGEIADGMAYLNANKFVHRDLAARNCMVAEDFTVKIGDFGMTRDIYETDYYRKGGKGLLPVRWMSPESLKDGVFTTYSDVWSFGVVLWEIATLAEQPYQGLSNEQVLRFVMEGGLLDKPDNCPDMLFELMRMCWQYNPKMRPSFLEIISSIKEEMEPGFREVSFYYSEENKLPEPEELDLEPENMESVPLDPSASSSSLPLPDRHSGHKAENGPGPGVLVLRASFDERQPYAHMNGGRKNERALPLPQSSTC

Question: For IR3 (antibody), which EC50 (read off the curve) [1] is on record?
Answer: 5 nM

Question: What about the EC50 (read off the curve) [2] of the same substance?
Answer: 0.2 nM
